Measurements: the RNAGym collection of RNA variant scans (doi:10.7554/elife.80360)

B1: CPEB3 Ribozyme (parent)
chain: GGGGGCCACAGCAGAAGCGUUCACGUCGCGGCCCCUGUCAGAUUCUGGUGAAUCUGCGAAUUCUGCUGU

Variants of: B1
Assay: self-cleavage, relative activity (ratio to wild type); higher = more cleavage; co-transcriptional

Going from GGGGGCCACAGCAGAAGCGUUCACGUCGUGGCCCCUGUCAGAUUCUGGUGAAGCUGCGAAUUCUGCUGU [C29U U53G] to GGGGGCCACAGCAGAAGCGUUCACGUCGUGGCCCCUGUCAGAUUCUGGUGAACCUGCGAAUUCUGCUGU [C29U U53C], the self-cleavage falls from 0.264 to 0.143.

Compared with GGGGGCCACAGCAGAAGCGUUCACGUCGUGGCCCCUGUCAGAUUCUGGUGAAACUGCGAAUUCUGCUGU [C29U U53A], GGGGGCCACAGCAGAAGCGUUCACGUCGCAGCCACUGUCAGAUUCUGGUGAAUCUGCGAAUUCUGCUGU [G30A C34A] is higher in self-cleavage: 0.267 for the first, 0.286 for the second.

First: GGGGGCCACAGCAGAAGCGUUCACGUCGCAGCCGCUGUCAGAUUCUGGUGAAUCUGCGAAUUCUGCUGU [G30A C34G]
Second: GGGGGCCACAGCAGAAGCGUUCACGUCGCAGCCCCUGUCAGAUUCUGGUGAAUCUGCGAUUUCUGCUGU [G30A A60U]
The self-cleavage of the first is lower: 0.278 for the first, 0.367 for the second.

Compared with GGGGGCCACAGCAGAAGCGUUCACGUCGCAGCCCCUGUCAGAUUCUGGUGAAUCUGCGAGUUCUGCUGU [G30A A60G], GGGGGCCACAGCAGAAGCGUUCACGUCGUGGCCCCUGUCAGAUUCGGGUGAAUCUGCGAAUUCUGCUGU [C29U U46G] is higher in self-cleavage: 0.395 for the first, 0.571 for the second.

Compared with GGGGGCCACAGCAGAAGCGUUCACGUCGUGGCCCCUGUCAGAUUCCGGUGAAUCUGCGAAUUCUGCUGU [C29U U46C], GGGGGCCACAGCAGAAGCGUUCACGUCGCAGCCCCUGUAAGAUUCUGGUGAAUCUGCGAAUUCUGCUGU [G30A C39A] is lower in self-cleavage: 0.433 for the first, 0.362 for the second.

First: GGGGGCCACAGCAGAAGCGUUCACGUCGCAGCCCCUGUCAGAUUCUGGUGAAUCUGCGCAUUCUGCUGU [G30A A59C]
Second: GGGGGCCACAGCAGAAGCGUUCACGUCGCAGCCCCUGUCAGAUUCUGGUGAAUCUGCGGAUUCUGCUGU [G30A A59G]
The self-cleavage of the first is lower: 0.275 for the first, 0.708 for the second.

Compared with GGGGGCCACAGCAGAAGCGUUCACGUCGUGGCCCCUGUCAGAUUCUGGUGAAUCUGCGAAUUCUGCUCU [C29U G68C], GGGGGCCACAGCAGAAGCGUUCACGUCGUGGCCCCUGACAGAUUCUGGUGAAUCUGCGAAUUCUGCUGU [C29U U38A] is lower in self-cleavage: 0.571 for the first, 0.2 for the second.

Going from GGGGGCCACAGCAGAAGCGUUCACGUCGUGGCCCCUGUCAGAUUCUGGUGAAUCUGCGAAUUCAGCUGU [C29U U64A] to GGGGGCCACAGCAGAAGCGUUCACGUCGUGGCCCCUGUCAGAUUCUGGUGAAUCUGCGAAUUCGGCUGU [C29U U64G], the self-cleavage rises from 0.171 to 0.206.

First: GGGGGCCACAGCAGAAGCGUUCACGUCGUGGCCCCUGUCAGAUUCUUGUGAAUCUGCGAAUUCUGCUGU [C29U G47U]
Second: GGGGGCCACAGCAGAAGCGUUCACGUCGCAGCGCCUGUCAGAUUCUGGUGAAUCUGCGAAUUCUGCUGU [G30A C33G]
The self-cleavage of the first is higher: 0.631 for the first, 0.227 for the second.

Going from GGGGGCCACAGCAGAAGCGUUCACGUCGCAGCCCCUGUCAGAUUCUGGUGAGUCUGCGAAUUCUGCUGU [G30A A52G] to GGGGGCCACAGCAGAAGCGUUCACGUCGUAGCCCCUGUCAGAUUCUGGUGAAUCUGCGAAUUCUGCUGU [C29U G30A], the self-cleavage falls from 0.852 to 0.283.

First: GGGGGCCACAGCAGAAGCGUUCACGUCGCAGCCCCUGUCAGAUUCUGGUGCAUCUGCGAAUUCUGCUGU [G30A A51C]
Second: GGGGGCCACAGCAGAAGCGUUCACGUCGUGGCCCCUGUCAUAUUCUGGUGAAUCUGCGAAUUCUGCUGU [C29U G41U]
The self-cleavage of the first is higher: 0.718 for the first, 0.191 for the second.

Compared with GGGGGCCACAGCAGAAGCGUUCACGUCGCAGCCCCUGUCAGAUUAUGGUGAAUCUGCGAAUUCUGCUGU [G30A C45A], GGGGGCCACAGCAGAAGCGUUCACGUCGUGGCCCCUGUCAGAUUCUGGUGAAUCUGCCAAUUCUGCUGU [C29U G58C] is lower in self-cleavage: 0.807 for the first, 0.398 for the second.

Going from GGGGGCCACAGCAGAAGCGUUCACGUCGCAGCCCCUGUCAGAUUCUGGUGAAUGUGCGAAUUCUGCUGU [G30A C54G] to GGGGGCCACAGCAGAAGCGUUCACGUCGUGGCCCCCGUCAGAUUCUGGUGAAUCUGCGAAUUCUGCUGU [C29U U36C], the self-cleavage falls from 0.333 to 0.244.

First: GGGGGCCACAGCAGAAGCGUUCACGUCGUGGCCCCGGUCAGAUUCUGGUGAAUCUGCGAAUUCUGCUGU [C29U U36G]
Second: GGGGGCCACAGCAGAAGCGUUCACGUCGUGGCCCCUGUCAGAUUCUGCUGAAUCUGCGAAUUCUGCUGU [C29U G48C]
The self-cleavage of the first is lower: 0.147 for the first, 0.61 for the second.

Compared with GGGGGCCACAGCAGAAGCGUUCACGUCGUGGCCCCUGUCAGAGUCUGGUGAAUCUGCGAAUUCUGCUGU [C29U U43G], GGGGGCCACAGCAGAAGCGUUCACGUCGUGGCCCCUGUCAGAAUCUGGUGAAUCUGCGAAUUCUGCUGU [C29U U43A] is higher in self-cleavage: 0.168 for the first, 0.171 for the second.

Compared with GGGGGCCACAGCAGAAGCGUUCACGUCGCAGCCCCUGUCAGCUUCUGGUGAAUCUGCGAAUUCUGCUGU [G30A A42C], GGGGGCCACAGCAGAAGCGUUCACGUCGCAGCCCCUGUCAGUUUCUGGUGAAUCUGCGAAUUCUGCUGU [G30A A42U] is higher in self-cleavage: 0.623 for the first, 0.677 for the second.

Compared with GGGGGCCACAGCAGAAGCGUUCACGUCGUGGCCCCUGUCAGAUUCUGGUGAAUCUGCGAACUCUGCUGU [C29U U61C], GGGGGCCACAGCAGAAGCGUUCACGUCGCAGCCCGUGUCAGAUUCUGGUGAAUCUGCGAAUUCUGCUGU [G30A C35G] is higher in self-cleavage: 0.183 for the first, 0.186 for the second.

First: GGGGGCCACAGCAGAAGCGUUCACGUCGCAGCCCUUGUCAGAUUCUGGUGAAUCUGCGAAUUCUGCUGU [G30A C35U]
Second: GGGGGCCACAGCAGAAGCGUUCACGUCGUGGCCCCUGUCAGAUACUGGUGAAUCUGCGAAUUCUGCUGU [C29U U44A]
The self-cleavage of the first is higher: 0.533 for the first, 0.26 for the second.

Going from GGGGGCCACAGCAGAAGCGUUCACGUCGUGGCCCCUGUCAGAUUCUGGUGAAUCUGCGAAUACUGCUGU [C29U U62A] to GGGGGCCACAGCAGAAGCGUUCACGUCGUGGCCCCUGUCAGAUUCUGGUGAAUCUCCGAAUUCUGCUGU [C29U G56C], the self-cleavage rises from 0.15 to 0.26.

Work on GGGGGCCACAGCAGAAGCGUUCACGUCGUGCCCCCUGUCAGAUUCUGGUGAAUCUGCGAAUUCUGCUGU [C29U G31C] yielded a self-cleavage of 0.158.
